Test: yeast display, Sf9 membrane polyspecificity reagent, FACS + sequencing; frameworks hold sequencing errors
Outline: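 Polyreactivity labels are assigned by the sorting gate from which each nanobody was recovered. The gates were low and high (top ~1%), set on anti-HA fluorescence for expression and streptavidin fluorescence for reagent binding. Before sorting, galactose-induced (36–48 hours) yeast display cells were stained for 1 hour at 4 °C with 10% biotinylated, detergent-solubilized Sf9 membrane reagent.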

| Sequence | polyreactivity (PSR sort gate) |
| --- | --- |
| QVQLVESGGGLVQARGSLRLSCAASGFTFPSYAMGWYRQAPGKERELVARITWIGGRTYYADSVKGRFTISRDNAKNTVYLQMNSLKPEDSAVYYCAARIGGGPVKYDYWGQGTQVTVSS | high polyreactivity |
| QVQLVESGGGLVQARGSLRLSCAASGFTFSDYVMGWYRQAPGKERELVAVITSGSSTYYADSVKGRFTISRDNAKNTVYLQMNSLKPEDTAVYYCNADPDDGYFSDFDYWGQGTQVTVSS | low polyreactivity |
| QVQLVESGGGLVQARGSLRLSCAASGFTFSRYAMGWYRQAPGKERELVAAITRSGGSTYYADSVKGRFTISRDNAKNTVYLQMNSLKPEDTAVYYCAKRAASGFRWDSGYWGQGTQVTVSS | high polyreactivity |
| QVQLVESGGGLVQARGSLRLSCAASGGIFDTYVMGWYRQAPGKERELVAAISCSGSTTYADSVKGRFTISRDNAKYTVYLQMNSLKPEDTAVYYCNADYSTIWRYDYWGQGTQVTVSS | low polyreactivity |
| QVQLVESGGGLVQARGSLRLSCAASGGTFESYAMGWYRQAPGKERELVAAITYSGGSTYYADSVKGRFTISRDNAKNTVYLQMNSLKPEDTAVYYCAARPRFITYKRYYWGQGTQVTVSS | high polyreactivity |
| QVQLVESGGGLVQARGSLRLSCAASGGTFLSYAMGWYRQAPGKERELVAGISSGGSTNYADSVKGRFTISRDNAKNTVYLQMNSLKPEDTAVDYCAADSFPSEFDYWGQGTQVTVSS | low polyreactivity |
| QVQLVESGGGLVQARGSLRLSCAASGIIFKGYAMGWYRQAPGKERELVAGITRYGGGTYYADSVKGRFTISRDNAMNTVYLQMNRLKPEDTAVYYCAAVRIARAVQDYDYWGQGTQVTVSS | high polyreactivity |
| QVQLVESGGGLVQARGSLRLSCAASGITFRVNAMGWYRPAPGKERELVAAISRGGGSTYYADSVKGRFTISRDNAKNTVYLQMNSLKPEDTAVYFCAASYGAPYGYKRYYYWGQGTQVTVSS | high polyreactivity |
| QVQLVESGGGLVQARGSLRLSCAASGLIFKYNVMGWYRQAPGTERELVAAITWGGTRTYYADSVKGRFTISRDNAKNTVYLQMNSLKPEDTAVYYCARSHWTWLLIYIGAQDYDYWGQGTQVTVSS | low polyreactivity |
| QVQLVESGGGLVQARGSLRLSCAASGNTIIRYAMGWYRQAPGKERELVAAISYAGGRTYYADSVKGRFTISRDNAKNTVYLQMNSLTPEDTAVYYCNAASRYGGDYWGQGTQVTVSS | high polyreactivity |
| QVQLVESGGGLVQARGSLRLSCAASGRIFGNNAKGWYRQAPGKARELVAAIRRGGSTYYADSVKGRFTISRDNAKITVYLQMNSLKPEETAVYYCAADSSRKHFYWGQGTQVTVSS | high polyreactivity |
| QVQLVESGGGLVQARGSLRLSCAASGRIFSYNDMGWYRQAPGTERELVAVISIRGGGTYYADSVKGRFTISRDNAKNTVYFQMNSLKPEDTAVYYCNAEYVTFGEEYGYWGQGTQVTVSS | low polyreactivity |
| QVQLVESGGGLVQARGSLRLSCAASGRTFRYYTMGWYRQAPGKEREFVAAITFRGGSTYYADSVKGRFTISRDNAKNTVYLQMNSLKPEDTAVYYCAAVGRYSRYPYSDTYGYWGQGTQVTVSS | high polyreactivity |
| QVQLVESGGGLVQARGSLRLSCAASGRTLTYNAMGWYRPAPGKERELVAVISSRGDTTYYADSVKGRFTISRDNAKNTVYLQRNSLKPEDTAVYFCNSALSGRRSYYYWGQGTQVTVSS | low polyreactivity |
| QVQLVESGGGLVQARGSLRLSCAASGSIFRYNAMGWYRQAPGKERELVAAITSAGGSTYYADSVKGRFTISRDKAKNTVYLQMNSLKPEDTAVYYCAVRYYVYFPWPRVTERMYYWGQGTQVTVSS | high polyreactivity |
| QVQLVESGGGLVQARGSLRLSCAASGSIFYNYGMGWYRQAPGKERELVAAIRASGDSTYYADSVKGRFTISRDNAKNTVYLQMNSLKPEDTAVYYCAARPNQSYYGLYYYWGQGTQVTVSS | low polyreactivity |
| QVQLVESGGGLVQARGSLRLSCAASGSIIDYYAMGWYRQAPGKERELVAAINISGGDTYYADSVKGRFTISRDNAKNTVYLQMNSLKPEDTAVYYCNADRFYIDYSNTYDSIRDYWGQGTQVSVSS | low polyreactivity |
| QVQLVESGGGLVQARGSLRLSCAASGSTFPYYTMGWYRQAHWKERELVAAITTRGGGTYYADSVKGRFTISRDNAKNTVYLKMNSLKPEDTAVYYCAAKTIYDTRGIRHYYWGKGTQVTVSS | high polyreactivity |
| QVQLVESGGGLVQARGSLRLSCAASGSTFTRYGMGWYRQAPGKERELVAAITTSGSSTYYADSVKGRFTISRDNAKNTVYLQMNSLKPEDTAVYYCAADWSSWGFDYWGQGTQVTLSS | low polyreactivity |
| QVQLVESGGGLVQARGSLRLSCAASGYIFFGNAMGWYRQAPGKERELVAAIRWRGTSTYYADSVKGRFTISRDNAKNTVYLQMKSLKPEDTAVYYCAADVVSSNFYGTFLYDYDYWGQGTQVTVSS | low polyreactivity |
| QVQLVESGGGLVQARGSLRLSCAASLLTFGKNDMGWYRQAPGKEREFVAAITSRGGYTYYADSVKGRFTISRDNAKNTVYSQMNSLKPEDTAVYYCNREYKRPSQRTEHSYWGQGTQVTVSS | low polyreactivity |

| Sequence | polyreactivity (PSR sort gate) |
| --- | --- |
| QVQLVESGGGLVQARGSLRLSCASSGSIFNYYDMGWYRQAPGKERELVAAIDTSGGSTYFADSVKGRFTISRDNAKNTVYLQMNRLKPEDTAVYYCAAEWPYYDKIYDYWGQGTQVTVSS | low polyreactivity |
| QVQLVESGGGLVQARGSLRLSCASSGSIFRFNGMGWYRQPPGKERELVATISSGGRTNYADSVKGRFTISRDNAKNTVYLQMNSLKPEDTAVYYCAARSPLRTSYYYPYYYWGQGTQVTVSS | high polyreactivity |
| QVQLVESGGGLVQARGSLRLSFAASGYTLRPNGMGWYRQAPGKERELVAAISSGGSTYYADSVKGRFTISRDNAKNTVYLQLNSLKPEDTAVSYCAAEYWYDYWVQGTQVTVSS | low polyreactivity |
| QVQLVESGGGLVQARGTRRLSSAACGRTFGSYAMGWYRQAPGKERELVAAISRSDGSTYYADSVKGRFSISRDNEKNTVYFQMNSLKPEDTAVYYCAAKRWYVSYDYDYWGQGTQVTVSS | high polyreactivity |
| QVQLVESGGGLVQARRRLRLSCAASGRTFRENFMGWYRQEPGKEREFVAISSSGASTYYADSVKGRFTISRDNAKNTVYLQMNSLKPEDTAVYYCAAKLYGAPYSKYYYWGHGTQVTVSS | high polyreactivity |
| QVQLVESGGGLVQASGSLRLSCAASGLTFYLNAMGWYRPEHGKERELVAGISYTGGSTYYADSVKGRFTISRDNAKNTVYLQMNSLKPEDTAVYSCARDNFYYGVWDYGYWGQGTQVTVSS | low polyreactivity |
| QVQLVESGGGLVQAVGRLRLSCAASGLTFQYYAMGWYRQAPGKERELDAAISRSGGRSYYADSVKGRFTISRDNAKYTVYLQMISLKPEDSAVSYCNAVRRFASPTRHYYWGQGTQVTVSS | high polyreactivity |
| QVQLVESGGGLVQAVGSHRLSCAASGSIFFWYTMGWYRQPPGKERELVATITGSGSSTTYADSVKGRFTISRDNAKNTVYLQMNSLKPVDTAVYYCAAADIIDHSFPYDYWGQGTQVTVSS | low polyreactivity |
| QVQLVESGGGLVQAVGSLRLICAPSGSIFGTNAMGWYRQAPGKERELVATISYGDGSTYYADSVKGRFTISRDNAKNTVYLQMNSLKPEDTAVYYCNTGVYSSGGPLDYWGQGTQVTVSS | low polyreactivity |
| QVQLVESGGGLVQAVGSLRLSCAASGFTFRGYDMRSYRQAPGKQRELVAGITWGDDSTYYADSVKRRFTISRDKAKNTGYLQMNILKPEDTAVYYCAAEYVFHDVLWWIYGYWRQGTQVTVSS | high polyreactivity |
| QVQLVESGGGLVQAVGSLRLSCAASGRIFVYNAMGWYRQAPGKERELVASITSSGGSTYYADSVKGRFTISRDNAKNTFYLQMNSLKPEDTAVYYCAADVQPDTRSTPEMDYWGQGTQVTVSS | low polyreactivity |
| QVQLVESGGGLVQAVGSLRLSCAASGRTFDEYAMGWYRQAPGKERELVAAISTRGGSTYYADSVKGRFTISRDNAKNTVYLQMNSLKPEDTAVYYCAADYTKSSSPWPGYYWGQGTQVTVSS | high polyreactivity |
| QVQLVESGGGLVQAVGSLRLSCAASGRTLSRNAKGWYRQAPGKEREFVAAISSRGTSTYYADSVKGRFTISRDNAKNSVYLQMNSLKPEDTAVYYCATTLGGNYGYDYWGQGTQVTVSS | high polyreactivity |
| QVQLVESGGGLVQAVGSLRLSCAASGSIFVKYAMGWYRQAPGKERELVAALSRSGGSTYYADSVKGRFTISRDNAKNTVYLQMNSLKPEDTEVYYCAATYYKGMNYWGQGTQVTVSS | high polyreactivity |
| QVQLVESGGGLVQAVGSLRLSCAASGSTFGEYAMGWYRQAPGKERELVAVITSDDNTYYADSVKGRFTISRDNAKNTVYLQMNSLKPEDTAVYYCATDDRRRFKYWGQGTQVTVSS | high polyreactivity |
| QVQLVESGGGLVQAVGSLRLSCAASGSTFGRNAMGWYRQAPGKERELVAAISWSASRTYYADSVKGRFTISRDNAKNTVYLQMNSLKPEDTAVYFCAAEYDVGYFGYEYWGQGTQVTVSS | high polyreactivity |
| QVQLVESGGGLVQAVGSLRLSCAASGSTFKRNAMGWYRQAPGKERELVAAITSGGSTYYADSVKGRFTISRDNAKNTVYLQMNSLKPEVTAVYYCNKVPYLKLKMDYWGQGTQVTVSS | high polyreactivity |
| QVQLVESGGGLVQAVGSLRLSCAASGSTFSRYAMGWYRQAPGKERELVAAISWGGNTYYADSVKGRFTISRDNAKNTVYLQMNSLKPVDTAVYYCNRYSKLYNTMDYWGQGTQVTVSS | high polyreactivity |
| QVQLVESGGGLVQAVRSLRLSCAASGFTFNGNAMGWYRQAPGKDRELVAAISYSGGSTYYADSVKGRFTISRDNAKNTVYLQMNSLKPEDTAVYYCAADRTAYSVRAYTKDHSGHDYWGQGTQVTVSS | low polyreactivity |
| QVQLVESGGGLVQEGASLRLSCAASGSIVGYYAMGWYRQAHGKERELVAAITRYGGRTYYADSVKGRFTISRDNGKNTVYLQMNSLKPEDTAVYYCNAANSRYAYYYWGQGTQVTVSS | high polyreactivity |

Reference: the nanobody polyreactivity screen of Harvey et al. (2022)
